Reference: patent US20180346602A1
Residue numbers refer to the chain shown, from its start.

B1: anti-variant (human) Fc-region antibody M1.3.17 (antibody, V domains shown)
VH: EVKLLESGGGLVQPGGSLKLSCAASGIDFRRYWMNWVRQAPGKGLEWIGEIDPDSSTINYTPSLKDKFIISRDNAKNTMYLQMRKVRSEDTALYYCARPYDYGAWFAYWGQGTLVTVSA
VL: QAVVTQESALTTSPGETVTLTCRSTTGAVTTSNYANWVQEKPDHLFTGLIGGTNKRAPGVPARFSGSLIGDKAALTITGAQTEDEAIYFCALWYSDHWVFGGGTKLTVL
B2: anti-variant (human) Fc-region antibody M1.7.24 (antibody, V domains shown)
VH: B1 VH with I27F, R30S, D52T, M79L, R84I, A97V, Y108S
VL: B1 VL with T25S, D96N

Legend:
[1] = target: anti-VEGF/ANG2 antibody (IgG1 subclass with mutations P329G/L234A/L235A/I253A/H310A/H435A) (human) [IgG part: P01857]; assay: sandwich ELISA in serum; M1.3.17-Bi capture on SA plate; tracer anti-human kappa M1.7.10-Dig; analyte 0 ng/mL (blank)
[2] = target: anti-VEGF/ANG2 antibody (IgG1 subclass with mutations P329G/L234A/L235A/I253A/H310A/H435A) [IgG part: P01857]; assay: sandwich ELISA in serum; capture M1.3.17, tracer M1.7.24; anti-VEGF/ANG2 antibody 1250 ng/mL
[3] = target: anti-VEGF/ANG2 antibody (IgG1 subclass with mutations P329G/L234A/L235A/I253A/H310A/H435A) [IgG part: P01857]; assay: bridging ELISA; biotinylated and digoxigenylated anti-VEGF/ANG2 antibody bridged by M1.3.17 at 250 ng/mL
[4] = target: anti-VEGF/ANG2 antibody (IgG1 subclass with mutations P329G/L234A/L235A/I253A/H310A/H435A) (human) [IgG part: P01857]; assay: sandwich ELISA in serum; M1.3.17-Bi capture on SA plate; tracer anti-human kappa M1.7.10-Dig; analyte 0.15625 ng/mL
[5] = target: anti-VEGF/ANG2 antibody (IgG1 subclass with mutations P329G/L234A/L235A/I253A/H310A/H435A) (human) [IgG part: P01857]; assay: sandwich ELISA in serum; M1.3.17-Bi capture on SA plate; tracer anti-human kappa M1.7.10-Dig; analyte 0.3125 ng/mL
[6] = target: anti-VEGF/ANG2 antibody (IgG1 subclass with mutations P329G/L234A/L235A/I253A/H310A/H435A) [IgG part: P01857]; assay: bridging ELISA; biotinylated and digoxigenylated anti-VEGF/ANG2 antibody bridged by M1.3.17 at 7.8125 ng/mL
[7] = target: anti-VEGF/ANG2 antibody (IgG1 subclass with mutations P329G/L234A/L235A/I253A/H310A/H435A) [IgG part: P01857]; assay: sandwich ELISA in serum; capture M1.3.17, tracer M1.7.24; anti-VEGF/ANG2 antibody 156.25 ng/mL
[8] = target: anti-VEGF/ANG2 antibody (IgG1 subclass with mutations P329G/L234A/L235A/I253A/H310A/H435A) (human) [IgG part: P01857]; assay: sandwich ELISA in serum; M1.3.17-Bi capture on SA plate; tracer anti-human kappa M1.7.10-Dig; analyte 0.625 ng/mL
[9] = target: anti-VEGF/ANG2 antibody (IgG1 subclass with mutations P329G/L234A/L235A/I253A/H310A/H435A) [IgG part: P01857]; assay: sandwich ELISA in serum; capture M1.3.17, tracer M1.7.24; anti-VEGF/ANG2 antibody 0 ng/mL (blank)
[10] = target: anti-VEGF/ANG2 antibody (IgG1 subclass with mutations P329G/L234A/L235A/I253A/H310A/H435A) [IgG part: P01857]; assay: bridging ELISA; biotinylated and digoxigenylated anti-VEGF/ANG2 antibody bridged by M1.3.17 at 15.625 ng/mL
[11] = target: cytokine (IL-2) antibody conjugate with the mutations P329G, L234A, L235A, I253A, H310A, and H435A; assay: sandwich ELISA in serum; capture anti-IL2 antibody, tracer M1.7.24; conjugate 2500 ng/mL
[12] = target: cytokine (IL-2) antibody conjugate with the mutations P329G, L234A, L235A, I253A, H310A, and H435A; assay: sandwich ELISA in serum; capture anti-IL2 antibody, tracer M1.7.24; conjugate 1250 ng/mL
[13] = target: anti-VEGF/ANG2 antibody (IgG1 subclass with mutations P329G/L234A/L235A/I253A/H310A/H435A) [IgG part: P01857]; assay: sandwich ELISA in serum; capture M1.7.10-Bi, tracer M1.7.24-Dig; anti-VEGF/ANG2 antibody 0.15625 ng/mL
[14] = target: anti-VEGF/ANG2 antibody (IgG1 subclass with mutations P329G/L234A/L235A/I253A/H310A/H435A) [IgG part: P01857]; assay: sandwich ELISA in serum; capture M1.7.10-Bi, tracer M1.7.24-Dig; anti-VEGF/ANG2 antibody 1.25 ng/mL
[15] = target: cytokine (IL-2) antibody conjugate with the mutations P329G, L234A, L235A, I253A, H310A, and H435A; assay: sandwich ELISA in serum; capture anti-IL2 antibody, tracer M1.7.24; conjugate 156.25 ng/mL
[16] = target: anti-VEGF/ANG2 antibody (IgG1 subclass with mutations P329G/L234A/L235A/I253A/H310A/H435A) [IgG part: P01857]; assay: sandwich ELISA in serum; capture M1.7.10-Bi, tracer M1.7.24-Dig; anti-VEGF/ANG2 antibody 2.5 ng/mL
[17] = target: cytokine (IL-2) antibody conjugate with the mutations P329G, L234A, L235A, I253A, H310A, and H435A; assay: sandwich ELISA in serum; capture anti-IL2 antibody, tracer M1.7.24; conjugate 0 ng/mL (blank)
[18] = target: anti-VEGF/ANG2 antibody (IgG1 subclass with mutations P329G/L234A/L235A/I253A/H310A/H435A) [IgG part: P01857]; assay: sandwich ELISA in serum; capture M1.7.10-Bi, tracer M1.7.24-Dig; anti-VEGF/ANG2 antibody 5 ng/mL
[19] = target: anti-VEGF/ANG2 antibody (IgG1 subclass with mutations P329G/L234A/L235A/I253A/H310A/H435A) [IgG part: P01857]; assay: sandwich ELISA in serum; capture M1.7.10-Bi, tracer M1.7.24-Dig; anti-VEGF/ANG2 antibody 0.625 ng/mL
[20] = target: anti-VEGF/ANG2 antibody (IgG1 subclass with mutations P329G/L234A/L235A/I253A/H310A/H435A) [IgG part: P01857]; assay: sandwich ELISA in serum; capture M1.7.10-Bi, tracer M1.7.24-Dig; anti-VEGF/ANG2 antibody 0.078125 ng/mL

| Binder | signal [OD405 nm] [1] | signal [OD405 nm] [2] | signal [OD405 nm] [3] | signal [OD405 nm] [4] | signal [OD405 nm] [5] | signal [OD405 nm] [6] | signal [OD405 nm] [7] | signal [OD405 nm] [8] | signal [OD405 nm] [9] | signal [OD405 nm] [10] | signal [OD405 nm] [11] | signal [OD405 nm] [12] | signal [OD405 nm] [13] | signal [OD405 nm] [14] | signal [OD405 nm] [15] | signal [OD405 nm] [16] | signal [OD405 nm] [17] | signal [OD405 nm] [18] | signal [OD405 nm] [19] | signal [OD405 nm] [20] |
| --- | --- | --- | --- | --- | --- | --- | --- | --- | --- | --- | --- | --- | --- | --- | --- | --- | --- | --- | --- | --- |
| B1 | 0.074 OD405 nm | 1.88 OD405 nm | 0.15 OD405 nm | 0.107 OD405 nm | 0.181 OD405 nm | 0.047 OD405 nm | 0.418 OD405 nm | 0.314 OD405 nm | 0.175 OD405 nm | 0.05 OD405 nm | – | – | – | – | – | – | – | – | – | – |
| B2 | – | – | – | – | – | – | – | – | – | – | 2.35 OD405 nm | 1.46 OD405 nm | 0.147 OD405 nm | 0.847 OD405 nm | 0.253 OD405 nm | 1.44 OD405 nm | 0.0475 OD405 nm | 2.17 OD405 nm | 0.468 OD405 nm | 0.096 OD405 nm |
